The record followed here is publication PMC5454382 (Nature Communications, 2017).

The target of experiment [1] is T1, His-tagged LDHA (human, UniProt P00338 1-332). As to the kind of experiment: pull-down; GST pull-down: GST-tagged protein on glutathione-sepharose resin incubated with His-tagged protein, 4 °C, 3 h. Conditions: both partners purified.
Experiment [2] concerns the target T1, His-tagged LDHA. As to the kind of experiment: pull-down; recombinant proteins from E. coli (Supplementary Fig. 3d,e); which partner was immobilised is not given. The following applies: both partners purified.

B1: GST-tagged hCINAP (enzyme, human, UniProt Q9Y3D8 1-172, looked up)
chain: MLLPNILLTGTPGVGKTTLGKELASKSGLKYINVGDLAREEQLYDGYDEEYDCPILDEDRVVDELDNQMREGGVIVDYHGCDFFPERWFHIVFVLRTDTNVLYERLETRGYNEKKLTDNIQCEIFQVLYEEATASYKEEIVHQLPSNKPEELENNVDQILKWIEQWIKDHNS
notes: hCINAP (adenylate kinase 6, AK6), human cDNA, wild type; Vector pGEX4T1 is named in the plasmids section; also called GST-hCINAP; glutathione S-transferase-tagged hCINAP; source: E. coli BL21(DE3), purified
On to B1, for which the binding result with His-tagged LDHA [1] is on record as “binds”.

B2: GST-tagged hCINAP (H79G) (enzyme, human, UniProt Q9Y3D8 1-172, looked up)
chain: MLLPNILLTGTPGVGKTTLGKELASKSGLKYINVGDLAREEQLYDGYDEEYDCPILDEDRVVDELDNQMREGGVIVDYGGCDFFPERWFHIVFVLRTDTNVLYERLETRGYNEKKLTDNIQCEIFQVLYEEATASYKEEIVHQLPSNKPEELENNVDQILKWIEQWIKDHNS
notes: hCINAP (adenylate kinase 6, AK6), human cDNA, H79G mutant with impaired adenylate kinase activity; also called H79G mutant hCINAP; source: E. coli BL21(DE3), purified
Turning to B2, the binding result with His-tagged LDHA [2] is “binds”.
